In article doi:10.1101/2021.08.20.457142:

B1: MKK7 D-site peptide (second D-site) / JNK1 alpha1 (MAPK8 isoform 1) L198A, full length (parent complex)
chain 1: SQPQRPRPTLQLPLANEAFEQP
chain 2: MSRSKRDNNFYSVEIGDSTFTVLKRYQNLKPIGSGAQGIVCAAYDAILERNVAIKKLSRPFQNQTHAKRAYRELVLMKCVNHKNIIGLLNVFTPQKSLEEFQDVYIVMELMDANLCQVIQMELDHERMSYLLYQMLCGIKHLHSAGIIHRDLKPSNIVVKSDCTLKILDFGLARTAGTSFMMTPYVVTRYYRAPEVIAGMGYKENVDLWSVGCIMGEMVCHKILFPGRDYIDQWNKVIEQLGTPCPEFMKKLQPTVRTYVENRPKYAGYSFEKLFPDVLFPADSEHNKLKASQARDLLSKMLVIDASKRISVDEALQHPYINVWYDPSEAEAPPPKIPDKQLDEREHTIEEWKELIYKEVMDLEERTKNGVIRGQPSPLAQVQQ
B2: MKK6 D-site peptide / p38-alpha (MAPK14) L195A, full length (parent complex)
chain 1: SQSKGKKRNPGLKIPKEAFEQP
chain 2: MSQERPTFYRQELNKTVWEVPERYQNLSPVGSGAYGSVCAAFDTKTGHRVAVKKLSRPFQSIIHAKRTYRELRLLKHMKHENVIGLLDVFTPARSLEEFNDVYLVTHLMGADLNNIVKCQKLTDDHVQFLIYQILRGLKYIHSADIIHRDLKPSNLAVNEDCELKILDFGLARHTDDEMTGYVATRWYRAPEIMANWMHYNQTVDIWSVGCIMAELLTGRTLFPGTDHIDQLKLILRLVGTPGAELLKKISSESARNYIQSLAQMPKMNFANVFIGANPLAVDLLEKMLVLDSDKRITAAQALAHAYFAQYHDPDDEPVAEPYDQSFESRDFLIDEWKSLTYDEVISFVPPPLDQEEMES

Variants of: B1

Variant	screen value
chain 1 P6A, chain 1 L10A	-0.724 Z-score of the enrichment rate within one screen of 711 sequences
chain 1 L12G	-0.442 Z-score of the enrichment rate within one screen of 711 sequences
chain 1 L14Y	0.328 Z-score of the enrichment rate within one screen of 711 sequences
chain 1 L14P	0.76 Z-score of the enrichment rate within one screen of 711 sequences
chain 1 P3Q	1.24 Z-score of the enrichment rate within one screen of 711 sequences
chain 1 P3A, chain 1 T9A	0.956 Z-score of the enrichment rate within one screen of 711 sequences
chain 1 L10A, chain 1 Q11A	-0.534 Z-score of the enrichment rate within one screen of 711 sequences
chain 1 T9A, chain 1 P13A	0.848 Z-score of the enrichment rate within one screen of 711 sequences
chain 1 R5S	0.06 Z-score of the enrichment rate within one screen of 711 sequences
chain 1 R5L	0.573 Z-score of the enrichment rate within one screen of 711 sequences
chain 1 P13K	1.72 Z-score of the enrichment rate within one screen of 711 sequences
chain 1 P13M	1.22 Z-score of the enrichment rate within one screen of 711 sequences
chain 1 Q11S	1.45 Z-score of the enrichment rate within one screen of 711 sequences
chain 1 Q11P	0.901 Z-score of the enrichment rate within one screen of 711 sequences
chain 1 Q11A	1.44 Z-score of the enrichment rate within one screen of 711 sequences
chain 1 Q4C	1.41 Z-score of the enrichment rate within one screen of 711 sequences
chain 1 P6A, chain 1 L14A	0.556 Z-score of the enrichment rate within one screen of 711 sequences
chain 1 P6Y	0.933 Z-score of the enrichment rate within one screen of 711 sequences

Now from value to variant:

screen value	Variant
-0.173 Z-score of the enrichment rate within one screen of 711 sequences	chain 1 L10C
0.296 Z-score of the enrichment rate within one screen of 711 sequences	chain 1 P8E
0.456 Z-score of the enrichment rate within one screen of 711 sequences	chain 1 P8A
-0.624 Z-score of the enrichment rate within one screen of 711 sequences	chain 1 L12Q
1.15 Z-score of the enrichment rate within one screen of 711 sequences	chain 1 N16S
1.61 Z-score of the enrichment rate within one screen of 711 sequences	chain 1 N16Q
1.48 Z-score of the enrichment rate within one screen of 711 sequences	chain 1 A15N
1.08 Z-score of the enrichment rate within one screen of 711 sequences	chain 1 A15D
0.415 Z-score of the enrichment rate within one screen of 711 sequences	chain 1 L14H
1.63 Z-score of the enrichment rate within one screen of 711 sequences	chain 1 P3W
-0.854 Z-score of the enrichment rate within one screen of 711 sequences	chain 1 P3A, chain 1 L12A
-0.519 Z-score of the enrichment rate within one screen of 711 sequences	chain 1 T9A, chain 1 L10A
0.459 Z-score of the enrichment rate within one screen of 711 sequences	chain 1 R5Y
0.542 Z-score of the enrichment rate within one screen of 711 sequences	chain 1 P13G
1.08 Z-score of the enrichment rate within one screen of 711 sequences	chain 1 P3A, chain 1 Q11A
0.914 Z-score of the enrichment rate within one screen of 711 sequences	chain 1 P6A, chain 1 P13A
2.16 Z-score of the enrichment rate within one screen of 711 sequences	chain 1 Q11F
1.68 Z-score of the enrichment rate within one screen of 711 sequences	chain 1 Q4A, chain 1 N16A
-0.584 Z-score of the enrichment rate within one screen of 711 sequences	chain 1 L12A, chain 1 L14A
0.92 Z-score of the enrichment rate within one screen of 711 sequences	chain 1 Q4D
1.91 Z-score of the enrichment rate within one screen of 711 sequences	chain 1 Q4K
1.56 Z-score of the enrichment rate within one screen of 711 sequences	chain 1 Q4V
1.28 Z-score of the enrichment rate within one screen of 711 sequences	chain 1 P6N
1.52 Z-score of the enrichment rate within one screen of 711 sequences	chain 1 P6K
1.27 Z-score of the enrichment rate within one screen of 711 sequences	chain 1 P6M
0.187 Z-score of the enrichment rate within one screen of 711 sequences	chain 1 P6A, chain 1 R7A

Variants of: B2

Variant	screen value
chain 1 S3N	1.29 Z-score of the enrichment rate within one screen of 711 sequences
chain 1 S3D	0.932 Z-score of the enrichment rate within one screen of 711 sequences
chain 1 K13A, chain 1 K16A	-0.809 Z-score of the enrichment rate within one screen of 711 sequences
chain 1 K13G	-1.05 Z-score of the enrichment rate within one screen of 711 sequences
chain 1 K13N	-0.0907 Z-score of the enrichment rate within one screen of 711 sequences
chain 1 K13S	-0.0532 Z-score of the enrichment rate within one screen of 711 sequences
chain 1 K13D	-0.943 Z-score of the enrichment rate within one screen of 711 sequences
chain 1 G11S	0.683 Z-score of the enrichment rate within one screen of 711 sequences
chain 1 G11A	1.13 Z-score of the enrichment rate within one screen of 711 sequences
chain 1 G11F	1.14 Z-score of the enrichment rate within one screen of 711 sequences
chain 1 R8A, chain 1 I14A	-0.878 Z-score of the enrichment rate within one screen of 711 sequences
chain 1 G5K	2.33 Z-score of the enrichment rate within one screen of 711 sequences
chain 1 G5F	3.61 Z-score of the enrichment rate within one screen of 711 sequences
chain 1 G5M	2.63 Z-score of the enrichment rate within one screen of 711 sequences
chain 1 G5T	1.67 Z-score of the enrichment rate within one screen of 711 sequences
chain 1 K6A, chain 1 I14A	-1.08 Z-score of the enrichment rate within one screen of 711 sequences
chain 1 L12G	-0.861 Z-score of the enrichment rate within one screen of 711 sequences

Second part, the variant after the results:

screen value	Variant
1.84 Z-score of the enrichment rate within one screen of 711 sequences	chain 1 S3C
1.6 Z-score of the enrichment rate within one screen of 711 sequences	chain 1 S3P
0.144 Z-score of the enrichment rate within one screen of 711 sequences	chain 1 K13V
0.477 Z-score of the enrichment rate within one screen of 711 sequences	chain 1 K13I
-0.274 Z-score of the enrichment rate within one screen of 711 sequences	chain 1 K13L
-0.412 Z-score of the enrichment rate within one screen of 711 sequences	chain 1 K13A
0.119 Z-score of the enrichment rate within one screen of 711 sequences	chain 1 K13F
1.68 Z-score of the enrichment rate within one screen of 711 sequences	chain 1 G11R
1.24 Z-score of the enrichment rate within one screen of 711 sequences	chain 1 G11M
1.26 Z-score of the enrichment rate within one screen of 711 sequences	chain 1 G11Y
1.64 Z-score of the enrichment rate within one screen of 711 sequences	chain 1 G5N
1.65 Z-score of the enrichment rate within one screen of 711 sequences	chain 1 G5S
4.45 Z-score of the enrichment rate within one screen of 711 sequences	chain 1 G5W
-0.984 Z-score of the enrichment rate within one screen of 711 sequences	chain 1 K6A, chain 1 K13A
